The nature of the data set: yeast display, Sf9 membrane polyspecificity reagent, FACS + sequencing; frameworks hold sequencing errors. Summed up: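 A synthetic nanobody library was expressed on Saccharomyces cerevisiae BJ5465 by galactose induction for 36–48 hours. The library was stained for 1 hour at 4 °C with 10% biotinylated, detergent-solubilized Sf9 membrane reagent and enriched with streptavidin microbeads before FACS. Low and high (top ~1%) gates were set on anti-HA fluorescence for expression and streptavidin fluorescence for reagent binding, and each polyreactivity label reflects the gate of origin.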
Take “QVQLVESGGGLVQAGGSLRLSCAASGSIFHVNARGRYRQAPGKERELVAGISDGGSTYYADSVKGRFTISRDNAKNTVYLQMNSLKPEDTGVYYCAAESEQWYSYVLSYDWEYDYWGQGTQVTVSS”: the “polyreactivity (PSR sort gate)” value was “low polyreactivity”.

In the case of “QVHLVESGGGLVQAGGSLRLSCAASGSIRVEYAMGWNRQAPGKERELVATITDSGNTNYADSVKGRFTISRDNAKNTVYLQMNSLKPEDTAVYYCAADAYPYYWLDQAFGYDYWGQGTQVTVSS”, the “polyreactivity (PSR sort gate)” value was “low polyreactivity”.

On to “QVQLVESGGGLVQAGGSLRLSCAASGLIFTYYDIGWYRQEPGKERELVASISWDGGRTYYADSVKGRFTIARDNAKKTVYLQMNSLKPEDTAVYYCAKRLGGSPIQARGDFWGQGTQVTVSS”, for which the “polyreactivity (PSR sort gate)” value is listed as “low polyreactivity”.

For “QVHLVESGGGLVQAGGSLRLSCAASGSIYTRYAMGWYRQAPGKERDLVAAITVSGGSTYYADSVKGRFTISRDNAKNTVYLQMNSLKPEDTAVYYCARRAWSGPGYFKAIRRFDYWGQGTQVTVSS”, the “polyreactivity (PSR sort gate)” value is “low polyreactivity”.

Regarding “QVQLVESGGGLVQAGGSLRLSCAASGLTFNYYAMGWYRQAPGKERELVAAITSSGGRTYYADSVKGRFTISRDNAKNTFYLQMNSLKPEDTAVYYCNTVSYRQGAVWFRYDYWGQGTQVTVSS”, the “polyreactivity (PSR sort gate)” value is “high polyreactivity”.

For the sequence “QVQLVESWGGLVQAGGSLRLSCAASGSIFAINAMGWYRQAPGTERELVAAIRSGGRTYYADSVKGRFTISRDNAKNTVYLQMNSLKPEDTAVYYCNAGGKWIGSDYCGQGTQVTVSS”, the “polyreactivity (PSR sort gate)” value was “high polyreactivity”.

Regarding “QVQLVESGGGLVQAAGSLRLSCAASGLIFQNYPMGWYRQAPGKERELVARISRRGGSTYYADSVKGRFTISRDNAKNPVYLQMISLKQEDTAVYYCAAGWTRWTSKRFEYWGQGTQVTVSS”, the “polyreactivity (PSR sort gate)” value is listed as “high polyreactivity”.

As to “QVQLVESGGGLVQAGGSLRLSCAASGSTFVVYAMGWYRQAPGKERELVAAITGSGGSTYYADSVKGRFTISRDNAKNTVYLQMNSLKPEDTAVYYCAADLYFYVISWGYGFYYWGQGTQVTVSS”, the “polyreactivity (PSR sort gate)” value is listed as “low polyreactivity”.

Take “QVQLVESGGGLVQAGGSLRLSCAASGFIFYYAMGWYRQAPGKERELVAAISSGSSTYADSVKGRFTISRDNAKNTVYLQMNSLKPEDTAVYYCATRYSSWYSNRDYDYWGQGTQVTVSS”: the “polyreactivity (PSR sort gate)” value is “low polyreactivity”.

Consider “QVQLVESGGGLVQAGGSLRLSCAASGRTFTDNAMGWYRQAPGKERELVAAISRRGGSTYYADSVKGRFTISRDNAKNTVYLQMNSLKPEDTAVYYCARASRDIRPYDYWGQGTQVTVSS”, for which the “polyreactivity (PSR sort gate)” value was “high polyreactivity”.

As to “QVQLVESGGGLVQAGGSLRLSCAASGSIFVPYTMGWYRQAPGKERELVAAINSSDDSTFYADSVKGRFTISRDNAKNTVYLKMYSLKPEDTAVYYCNATGYARWYTGDYWGQGTQVTVSS”, the “polyreactivity (PSR sort gate)” value is on record as “low polyreactivity”.

In the case of “QVQLVESGGGLVQAGGSLRLSCAASGSTFDHYAMGWYRQAPGKERELVAAITRSGGSTYYADSVKGRFTISRDNAKNTVYLQMNSLKPEDTAVYYCNARRWITSDYWGQGTQVTVSS”, the “polyreactivity (PSR sort gate)” value is listed as “high polyreactivity”.

In the case of “QVQLVESGGGLVQAGGSLRLSCAASGSIISDYALGWYRPAPGKERELVAGISSGGGTTYADSVKGRFTISRDNAKNTVYLQMNSLKPEDTAVYYCNKQDQPVGRSGYPYGYDYWGQGTQVTVSS”, the “polyreactivity (PSR sort gate)” value was “low polyreactivity”.

Take “QVQRVESRVSLVQEGGSLRLSCASSGLIYYRYTMGCYINAPVKEREVFAAISSGGRTYYADSVKGRFTISRDNAKNTVYLQMNSLKPEDTAVYYCATRVYSVHAPSAVPIGGYYWGQGTQVTVSS”: the “polyreactivity (PSR sort gate)” value is given as “high polyreactivity”.

For “QVQLVESGGGLVQAGGSLRLSCAASGFIFKGYAMGWYRQAPGKERELVAAISQRGSSTYYADSVKGRFTISRDNAKNTVYLQMNSLKPEDTAVYYCNALRHSKLDYYSWGQGTQVTVSS”, the “polyreactivity (PSR sort gate)” value is reported as “high polyreactivity”.

As to “QVQLVESGGGLVQAGGSLRLSCAASGITFAWYAMGWYRQAPGKERELVAAISRSGGSTYYADSVKGRFTISRDNAKNTVYLQMNSLKPEDTAVYYCADRASPRFNYWGQGTQVTVSS”, the “polyreactivity (PSR sort gate)” value is on record as “high polyreactivity”.

The values are drawn from the nanobody polyreactivity screen of Harvey et al. (2022).
